Data: article PMC3458545 (Nucleic Acids Research, 2012)
Each block holds one binder with its values, some of them ahead of it.

How the values were obtained:
RecQL4_N54 = biological target: T1, RecQL4_N54 (human (Homo sapiens), UniProt O94761 1-54); test: EMSA
T1 sequence: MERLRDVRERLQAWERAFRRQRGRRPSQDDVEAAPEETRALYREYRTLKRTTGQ

[1] = biological target: GST-TopBP1 (a.a. 1233–1522) (human, UniProt Q92547 1233-1522); test: SPR
Sequence of GST-TopBP1 (a.a. 1233–1522) (Q92547 1233-1522): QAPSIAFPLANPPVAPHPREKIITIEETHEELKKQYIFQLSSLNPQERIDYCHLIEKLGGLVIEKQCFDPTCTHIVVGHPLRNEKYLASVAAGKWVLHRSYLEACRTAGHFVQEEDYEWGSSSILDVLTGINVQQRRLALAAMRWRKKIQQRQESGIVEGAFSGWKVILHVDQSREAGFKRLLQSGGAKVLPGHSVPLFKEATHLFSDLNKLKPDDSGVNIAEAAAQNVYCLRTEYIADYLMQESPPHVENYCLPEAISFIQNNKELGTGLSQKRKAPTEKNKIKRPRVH

B1: M2-M4 Y (mixed)
DNA 1: GCTTGCATGCCTGCAGGCCAGCCTCAATCTCATC
DNA 2: ATCCTCTCTAGAGTCGACCTGCAGGCATGCAAGC
- binding result (RecQL4_N54): binds

- Kd [1]: ~70 µM
B2: RecQL4_N54 (domain or fragment, human)
chain: GSMERLRDVRERLQAWERAFRRQRGRRPSQDDVEAAPEETRALYREYRTLKRTTGQ

B3: S4-M3 Y (mixed)
DNA 1: ATCCTCTCTAGAGTCAAGGTCGGAGTTAGAGTAG
DNA 2: CTACTCTAACTCCGACCGCTTGCATGCCTGCAGG
- binding result (RecQL4_N54): binds
